This note sets out measurements from paper PMC3086075.

The target in this test is recombinant class C acid phosphatase from Pasteurella multocida (Pasteurella multocida). Briefly: AUC.

Regarding “recombinant class C acid phosphatase from Pasteurella multocida (enzyme)”, the stoichiometry N came out at 2.
